Measurements: the supplement of paper PMC7125110
± gives the standard error. Variants at the floor of the assay were thinned out.

B1: glmS ribozyme (parent)
chain: AUAAAAGCGCCAGAACUACAGAAAUGUAGUUGACGAGGAGGAGGUUUAUCGAAUUUUCGGCGGAUGCCUCCAAA

Experiments:
Settings in all cases: with glucosamine-6-phosphate
glucosamine-6-phosphate [1] = variants of: B1; assay: self-cleavage kobs at 160 uM GlcN6P; higher = faster cleavage; RNA array
How it was run: (§1)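 Ribozyme variants carrying barcodes were transcribed in situ on sequenced MiSeq chips by E. coli RNA polymerase and tracked at 37 °C with a hybridised Cy3 probe. They were exposed to 40 μM to 10 mM glucosamine-6-phosphate in HEPES/KCl/Mg(OAc)2 buffer. kobs came from exponential decay fits of normalised per-tile medians, and kcat and KM from weighted Michaelis–Menten fits.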

glucosamine-6-phosphate [2] = variants of: B1; assay: self-cleavage kobs at 640 uM GlcN6P; higher = faster cleavage; RNA array
How it was run: as §1

glucosamine-6-phosphate [3] = variants of: B1; assay: self-cleavage kobs at 2500 uM GlcN6P; higher = faster cleavage; RNA array
How it was run: as §1

glucosamine-6-phosphate [4] = variants of: B1; assay: self-cleavage kobs at 10000 uM GlcN6P; higher = faster cleavage; RNA array
How it was run: as §1

Variant | self-cleavage kobs at 160 uM GlcN6P (glucosamine-6-phosphate [1]) | self-cleavage kobs at 640 uM GlcN6P (glucosamine-6-phosphate [2]) | self-cleavage kobs at 2500 uM GlcN6P (glucosamine-6-phosphate [3]) | self-cleavage kobs at 10000 uM GlcN6P (glucosamine-6-phosphate [4])
G29A G41U A53C C58A | < 1e-05 s⁻¹ | < 1e-05 s⁻¹ | < 1e-05 s⁻¹ | 
C10G U31C A33C G51U C71U | < 1e-05 s⁻¹ | < 1e-05 s⁻¹ |  | 
C11A G13U U47G A52C A53C | < 1e-05 s⁻¹ |  |  | 
A12G G35A | < 1e-05 s⁻¹ | < 1e-05 s⁻¹ |  | < 1e-05 s⁻¹
C10G G44U C50U C61U | < 1e-05 s⁻¹ | < 1e-05 s⁻¹ |  | 
A12C G51C U57C A64C | < 1e-05 s⁻¹ | < 1e-05 s⁻¹ | < 1e-05 s⁻¹ | 
G13C C34U | < 1e-05 s⁻¹ | < 1e-05 s⁻¹ | < 1e-05 s⁻¹ | < 1e-05 s⁻¹
C16G G41U U54A | < 1e-05 s⁻¹ |  |  | 
A12C C50A A53G G63U | < 1e-05 s⁻¹ |  |  | 
A14G A36C | < 1e-05 s⁻¹ | < 1e-05 s⁻¹ |  | 
C11G G32A U65G | < 1e-05 s⁻¹ | < 1e-05 s⁻¹ |  | < 1e-05 s⁻¹
A15G U31A G35U C67G | < 1e-05 s⁻¹ | < 1e-05 s⁻¹ | < 1e-05 s⁻¹ | 
G13C A14U G32A | 0.000741 ± 0.00017 s⁻¹ |  | 0.00667 ± 0.0017 s⁻¹ | 
C10U A12U G44A U49C C70G | < 1e-05 s⁻¹ | < 1e-05 s⁻¹ | < 1e-05 s⁻¹ | 
A12C A14U G44U U45A | < 1e-05 s⁻¹ |  |  | 
C10U A12G U31A A36C C58A | < 1e-05 s⁻¹ |  |  | 
A12U G13U A48U G51C U54G C71U | < 1e-05 s⁻¹ | < 1e-05 s⁻¹ | < 1e-05 s⁻¹ | 
C11U U55G C71A | 3.73e-05 ± 1.5e-05 s⁻¹ | 8.41e-05 ± 1.7e-05 s⁻¹ | 0.000143 ± 5.3e-05 s⁻¹ | 
C16A U54A C67A | 4.32e-05 ± 1.9e-05 s⁻¹ | 6.57e-05 ± 2.8e-05 s⁻¹ | 0.000181 ± 4.8e-05 s⁻¹ | 
A14C A48U G60U | < 1e-05 s⁻¹ | < 1e-05 s⁻¹ |  | 
A14C G29A U56C U57G | < 1e-05 s⁻¹ | < 1e-05 s⁻¹ |  | 
A15U U55G A64G | 0.000233 ± 5.2e-05 s⁻¹ |  |  | 
A12G A14U A15U | 4.38e-05 ± 2.1e-05 s⁻¹ |  |  | 
C10G U65C | < 1e-05 s⁻¹ | < 1e-05 s⁻¹ | < 1e-05 s⁻¹ | < 1e-05 s⁻¹
A14G U45G A53U | 0.000618 ± 0.00016 s⁻¹ | 0.00262 ± 0.00057 s⁻¹ | 0.00337 ± 0.0012 s⁻¹ | 
C11U C34U G66C | < 1e-05 s⁻¹ |  | < 1e-05 s⁻¹ | 
